# Measurements from US20230287118A1 (published 2023).
# Where a chain is given by its changes, count along the chain named.
# T1: human CD20 (human, UniProt P11836 1-297)
# T1 sequence (looked up): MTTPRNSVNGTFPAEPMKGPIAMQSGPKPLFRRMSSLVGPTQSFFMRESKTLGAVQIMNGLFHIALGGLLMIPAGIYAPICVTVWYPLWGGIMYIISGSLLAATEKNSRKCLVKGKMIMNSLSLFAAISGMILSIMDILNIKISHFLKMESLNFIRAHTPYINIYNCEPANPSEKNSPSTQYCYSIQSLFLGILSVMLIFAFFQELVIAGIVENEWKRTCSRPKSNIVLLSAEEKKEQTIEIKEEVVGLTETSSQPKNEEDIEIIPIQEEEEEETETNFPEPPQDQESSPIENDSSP
# T2: cynomolgus monkey CD20 (cynomolgus monkey, UniProt M4ZHZ6 1-297)
# T2 construct: whole, on cells; also called cynomolgus CD20
# T2 sequence: T1 sequence (looked up) with S25P, F31L, T51A, A157V, K217R, N226S, I227V, T239V
# B1: anti-CD20/anti-CD3 TCB molecule B: "2+1 IgG CrossFab, inverted" with charge modifications (VH/VL exchange in CD3 binder, charge modification in CD20 binders) (bispecific antibody)
# heavy 1: not shown
# heavy 2: QVQLVQSGAEVKKPGSSVKVSCKASGYAFSYSWINWVRQAPGQGLEWMGRIFPGDGDTDYNGKFKGRVTITADKSTSTAYMELSSLRSEDTAVYYCARNVFDGYWLVYWGQGTLVTVSSASTKGPSVFPLAPSSKSTSGGTAALGCLVEDYFPEPVTVSWNSGALTSGVHTFPAVLQSSGLYSLSSVVTVPSSSLGTQTYICNVNHKPSNTKVDEKVEPKSCDKTHTCPPCPAPEAAGGPSVFLFPPKPKDTLMISRTPEVTCVVVDVSHEDPEVKFNWYVDGVEVHNAKTKPREEQYNSTYRVVSVLTVLHQDWLNGKEYKCKVSNKALGAPIEKTISKAKGQPREPQVCTLPPSRDELTKNQVSLSCAVKGFYPSDIAVEWESNGQPENNYKTTPPVLDSDGSFFLVSKLTVDKSRWQQGNVFSCSVMHEALHNHYTQKSLSLSP
# light 1: DIVMTQTPLSLPVTPGEPASISCRSSKSLLHSNGITYLYWYLQKPGQSPQLLIYQMSNLVSGVPDRFSGSGSGTDFTLKISRVEAEDVGVYYCAQNLELPYTFGGGTKVEIKRTVAAPSVFIFPPSDRKLKSGTASVVCLLNNFYPREAKVQWKVDNALQSGNSQESVTEQDSKDSTYSLSSTLTLSKADYEKHKVYACEVTHQGLSSPVTKSFNRGEC
# light 2: EVQLLESGGGLVQPGGSLRLSCAASGFTFSTYAMNWVRQAPGKGLEWVSRIRSKYNNYATYYADSVKGRFTISRDDSKNTLYLQMNSLRAEDTAVYYCVRHGNFGNSYVSWFAYWGQGTLVTVSSASVAAPSVFIFPPSDEQLKSGTASVVCLLNNFYPREAKVQWKVDNALQSGNSQESVTEQDSKDSTYSLSSTLTLSKADYEKHKVYACEVTHQGLSSPVTKSFNRGEC
# notes: Bivalent for CD20, monovalent for CD3; also called CD20 TCB; CD20 TCB_2+1_with charges, inverted
# Experiments:
# human CD20 [1] = molecular target: T1, human CD20; assay: cell-based or functional assay
# human CD20 [2] = molecular target: T1, human CD20; assay: cell-based or functional assay; remark: listed apart in the source
# human CD20 [3] = molecular target: T1, human CD20; assay: cell-based or functional assay; remark: listed apart in the source
# human CD20 [4] = molecular target: T1, human CD20; assay: cell-based or functional assay; remark: listed apart in the source
# human CD3 [5] = molecular target: T3, human CD3 (human, UniProt P07766 23-207); assay: cell-based or functional assay
# human CD3 [6] = molecular target: T3, human CD3; assay: flow cytometry on CD3-expressing Jurkat cells, PE anti-human Fc secondary antibody
# Method: (§1) The binding of the anti-CD3/anti-CD20 TCB antibody shown as molecule “B” above was tested on human CD20-expressing Diffuse Large-Cell B Cell Lymphoma (DLBCL) cell line (WSU DLCL2, 0.5-1×10⁶ CD20 binding sites) and CD3-expressing immortalized T lymphocyte line (Jurkat). Briefly, cells were harvested, counted, checked for viability and resuspended at 1.5×10⁶ cells/ml in FACS buffer (PBS 0.1% BSA).
# (§2) Binding curves and the EC50 values related to binding were calculated using GraphPadPrism5.
# human CD20 [7] = molecular target: T1, human CD20; assay: flow cytometry on CD20-expressing WSU DLCL2 cells, PE anti-human Fc secondary antibody
# Method: as §1, §2
# human CD20 [8] = molecular target: T1, human CD20; assay: flow cytometry, AlexaFluor488-labelled TCB on CD20-expressing B cells among human PBMCs
# Method: (§3) The crossreactivity of the anti-CD3/anti-CD20 TCB antibody shown as molecule “B” above was evaluated by assessing binding to human and cynomolgus monkey CD20-expressing B cells and CD3-expressing CD4 and CD8 T cells. Briefly, heparinized human and cynomolgus monkey blood from healthy donors was used to isolate PBMCs by density centrifugation. Isolated PBMCs were counted, checked for viability and resuspended at 4×10⁶ cells/ml in FACS buffer (100 μl PBS 0.1% BSA). 100 μl of cell suspension (containing 0.4×10⁶ cells) were plated into 96-well_U-bottom plate and centrifuged (420×g, 4 min). After removal of the supernatants, PBMCs were incubated for 30 min at 4° C. with increasing concentrations of the CD20 TCB-AlexaFlour488 (200 pM-200 nM), washed twice with cold PBS 0.1% BSA, re-incubated for further 30 min at 4° C. with human/cynomolgus cross-reactive antibodies: anti-CD19 (in house, clone 8B8)-AlexaFluor647, anti-CD4 (BD, #552838, clone L200)-PerCPCy5.5 and anti-CD8 (BD, #555367, clone RPA-T8)-PE.
# cynomolgus monkey CD20 = molecular target: T2, cynomolgus monkey CD20; assay: flow cytometry, AlexaFluor488-labelled TCB on CD20-expressing B cells among cynomolgus monkey PBMCs
# Method: as §3
binder,measurement,setting,value
B1,"EC50 of tumor cell lysis (LDH release), Z138 cells + human PBMCs, 21-24 h, panel A",human CD20 [1],2.18 pM
same,"EC50 of tumor cell lysis (LDH release), Z138 cells + human PBMCs, 21-24 h, panel B",human CD20 [1],0.96 pM
same,"EC50 24 h of CD4 T cell activation, Z138 cells (average of 3 donors)",human CD20 [2],1.2 pM
same,"EC50 24 h of CD8 T cell activation, Z138 cells (average of 3 donors)",human CD20 [2],2.2 pM
same,"EC50 24 h of tumor lysis, Z138 cells (average of 3 donors)",human CD20 [2],1.6 pM
same,"EC50 24 h of tumor lysis, Ocly-18 cells",human CD20 [3],0.3 pM
same,"EC50 24 h of tumor lysis, SU-DHL-5 cells",human CD20 [3],1.2 pM
same,"EC50 24 h of tumor lysis, SU-DHL-8 cells",human CD20 [3],0.5 pM
same,"EC50 24 h of tumor lysis, U2932 cells",human CD20 [3],0.9 pM
same,EC50 24 h of B cell depletion in normal human whole blood,human CD20 [4],13.2 pM
same,"EC50 of CD3 activation, Jurkat-NFAT reporter cells co-cultured with Z138 cells (luminescence, 6 h)",human CD3 [5],29 pM
same,EC50,human CD3 [6],~12500 pM
same,EC50,human CD20 [7],980 pM
same,EC50,human CD20 [8],4800 pM
same,EC50,cynomolgus monkey CD20,3300 pM
